Source: patent publication US20100297122A1

Target: zTNF4 (UniProt Q9Y275)
Assay: cell-based or functional assay

Sequence of Atacicept (chain): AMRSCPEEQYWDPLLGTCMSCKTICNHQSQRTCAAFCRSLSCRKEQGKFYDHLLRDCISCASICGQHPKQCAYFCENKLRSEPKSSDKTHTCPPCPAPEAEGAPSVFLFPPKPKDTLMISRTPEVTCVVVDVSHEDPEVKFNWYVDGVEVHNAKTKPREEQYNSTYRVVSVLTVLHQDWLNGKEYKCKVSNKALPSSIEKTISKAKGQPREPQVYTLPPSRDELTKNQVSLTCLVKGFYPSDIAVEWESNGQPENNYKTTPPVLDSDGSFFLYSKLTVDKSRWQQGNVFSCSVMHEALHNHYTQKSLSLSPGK
Sequence of UniProt Q9Y275 (Q9Y275 134-285 limits assumed): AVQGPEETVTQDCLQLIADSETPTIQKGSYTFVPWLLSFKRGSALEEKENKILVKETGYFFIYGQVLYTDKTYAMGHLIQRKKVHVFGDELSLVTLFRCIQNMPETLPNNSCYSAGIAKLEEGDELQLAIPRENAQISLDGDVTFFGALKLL

Atacicept (Fc fusion) showed a Biological activity (U/mL); Atacicept 25/1; 1 Mo +5° C. of 137000 U/mL, a Biological activity (U/mL); Atacicept 25/1; 1 Mo+25° C. of 134000 U/mL and a Biological activity (U/mL); Atacicept 25/1; 2 Mo +5° C. of 135000 U/mL. For the same substance, the Biological activity (U/mL); Atacicept 25/1; 2 Mo+25° C. was 125000 U/mL, the Biological activity (U/mL); Atacicept 25/1; 3 Mo +5° C. was 136000 U/mL and the Biological activity (U/mL); Atacicept 25/1; 3 Mo+25° C. was 132000 U/mL. The Biological activity (U/mL); Atacicept 25/1; 6 Mo +5° C. was 127000 U/mL, the Biological activity (U/mL); Atacicept 25/1; 6 Mo+25° C. was 118000 U/mL and the Biological activity (U/mL); Atacicept 25/1; 9 Mo +5° C. was 147000 U/mL. The Biological activity (U/mL); Atacicept 25/1; 12 Mo +5° C. was 131000 U/mL, the Biological activity (U/mL); Atacicept 25/1; 18 Mo +5° C. was 108000 U/mL and the Biological activity (U/mL); Atacicept 25/1; Zero Time (5° C. block) was 140000 U/mL. It also gave a Biological activity (U/mL); Atacicept 25/1; Zero Time (25° C. block) of 140000 U/mL, a Biological activity (U/mL); Atacicept 25/1.2; 1 Mo +5° C. of 116000 U/mL and a Biological activity (U/mL); Atacicept 25/1.2; 1 Mo+25° C. of 114000 U/mL. The Biological activity (U/mL); Atacicept 25/1.2; 2 Mo +5° C. was 126000 U/mL, the Biological activity (U/mL); Atacicept 25/1.2; 2 Mo+25° C. was 118000 U/mL and the Biological activity (U/mL); Atacicept 25/1.2; 3 Mo +5° C. was 122000 U/mL. It also gave a Biological activity (U/mL); Atacicept 25/1.2; 3 Mo+25° C. of 114000 U/mL, a Biological activity (U/mL); Atacicept 25/1.2; 6 Mo +5° C. of 115000 U/mL and a Biological activity (U/mL); Atacicept 25/1.2; 6 Mo+25° C. of 103000 U/mL. For the same substance, the Biological activity (U/mL); Atacicept 25/1.2; 9 Mo +5° C. was 124000 U/mL, the Biological activity (U/mL); Atacicept 25/1.2; 12 Mo +5° C. was 106000 U/mL and the Biological activity (U/mL); Atacicept 25/1.2; 18 Mo +5° C. was 113000 U/mL. The Biological activity (U/mL); Atacicept 25/1.2; Zero Time (5° C. block) was 112000 U/mL, the Biological activity (U/mL); Atacicept 25/1.2; Zero Time (25° C. block) was 112000 U/mL and the Biological activity (U/mL); Atacicept 75/1; 1 Mo +5° C. was 410000 U/mL. For the same substance, the Biological activity (U/mL); Atacicept 75/1; 1 Mo+25° C. was 388000 U/mL, the Biological activity (U/mL); Atacicept 75/1; 2 Mo +5° C. was 380000 U/mL and the Biological activity (U/mL); Atacicept 75/1; 2 Mo+25° C. was 337000 U/mL. For the same substance, the Biological activity (U/mL); Atacicept 75/1; 3 Mo +5° C. was 374000 U/mL, the Biological activity (U/mL); Atacicept 75/1; 3 Mo+25° C. was 365000 U/mL and the Biological activity (U/mL); Atacicept 75/1; 6 Mo +5° C. was 364000 U/mL. For the same substance, the Biological activity (U/mL); Atacicept 75/1; 6 Mo+25° C. was 328000 U/mL, the Biological activity (U/mL); Atacicept 75/1; 9 Mo +5° C. was 468000 U/mL and the Biological activity (U/mL); Atacicept 75/1; 12 Mo +5° C. was 346000 U/mL. The Biological activity (U/mL); Atacicept 75/1; Zero Time (5° C. block) was 423000 U/mL, the Biological activity (U/mL); Atacicept 75/1; Zero Time (25° C. block) was 423000 U/mL and the Biological activity (U/mL); Atacicept 150/1; 1 Mo +5° C. was 775000 U/mL. For the same substance, the Biological activity (U/mL); Atacicept 150/1; 1 Mo+25° C. was 777000 U/mL, the Biological activity (U/mL); Atacicept 150/1; 2 Mo +5° C. was 755000 U/mL and the Biological activity (U/mL); Atacicept 150/1; 2 Mo+25° C. was 720000 U/mL. For the same substance, the Biological activity (U/mL); Atacicept 150/1; 3 Mo +5° C. was 819000 U/mL, the Biological activity (U/mL); Atacicept 150/1; 3 Mo+25° C. was 761000 U/mL and the Biological activity (U/mL); Atacicept 150/1; 6 Mo +5° C. was 815000 U/mL. It also gave a Biological activity (U/mL); Atacicept 150/1; 6 Mo+25° C. of 677000 U/mL, a Biological activity (U/mL); Atacicept 150/1; 9 Mo +5° C. of 843000 U/mL and a Biological activity (U/mL); Atacicept 150/1; 12 Mo +5° C. of 810000 U/mL. It also gave a Biological activity (U/mL); Atacicept 150/1; 18 Mo +5° C. of 565000 U/mL, a Biological activity (U/mL); Atacicept 150/1; Zero Time (5° C. block) of 836000 U/mL and a Biological activity (U/mL); Atacicept 150/1; Zero Time (25° C. block) of 836000 U/mL. For the same substance, the Biological activity (U/mL); Atacicept 150/1.2; 1 Mo +5° C. was 643000 U/mL, the Biological activity (U/mL); Atacicept 150/1.2; 1 Mo+25° C. was 695000 U/mL and the Biological activity (U/mL); Atacicept 150/1.2; 2 Mo +5° C. was 743000 U/mL. For the same substance, the Biological activity (U/mL); Atacicept 150/1.2; 2 Mo+25° C. was 697000 U/mL, the Biological activity (U/mL); Atacicept 150/1.2; 3 Mo +5° C. was 695000 U/mL and the Biological activity (U/mL); Atacicept 150/1.2; 3 Mo+25° C. was 607000 U/mL. It also gave a Biological activity (U/mL); Atacicept 150/1.2; 6 Mo +5° C. of 645000 U/mL, a Biological activity (U/mL); Atacicept 150/1.2; 6 Mo+25° C. of 587000 U/mL and a Biological activity (U/mL); Atacicept 150/1.2; 9 Mo +5° C. of 714000 U/mL. For the same substance, the Biological activity (U/mL); Atacicept 150/1.2; 12 Mo +5° C. was 620000 U/mL, the Biological activity (U/mL); Atacicept 150/1.2; 18 Mo +5° C. was 551000 U/mL and the Biological activity (U/mL); Atacicept 150/1.2; Zero Time (5° C. block) was 647000 U/mL. For the same substance, the Biological activity (U/mL); Atacicept 150/1.2; Zero Time (25° C. block) was 647000 U/mL.

TACI-Fc5 (Fc fusion) gave a Bioassay (U/mL); 21A, 70 mg/mL; 2-8° C.; 4 w of 366000 U/mL, a Bioassay (U/mL); 21A, 70 mg/mL; 2-8° C.; 8 w of 319000 U/mL and a Bioassay (U/mL); 21A, 70 mg/mL; 2-8° C.; 13 w of 388000 U/mL. The Bioassay (U/mL); 21A, 70 mg/mL; 2-8° C.; time 0 was 348000 U/mL, the Bioassay (U/mL); 21A, 70 mg/mL; 25° C.; 4 w was 312000 U/mL and the Bioassay (U/mL); 21A, 70 mg/mL; 25° C.; 8 w was 279000 U/mL. For the same substance, the Bioassay (U/mL); 21A, 70 mg/mL; 25° C.; 13 w was 305000 U/mL, the Bioassay (U/mL); 21A, 70 mg/mL; 25° C.; time 0 was 348000 U/mL and the Bioassay (U/mL); 21B, 70 mg/mL; 2-8° C.; 4 w was 318000 U/mL. It also gave a Bioassay (U/mL); 21B, 70 mg/mL; 2-8° C.; 8 w of 290000 U/mL, a Bioassay (U/mL); 21B, 70 mg/mL; 2-8° C.; 13 w of 358000 U/mL and a Bioassay (U/mL); 21B, 70 mg/mL; 2-8° C.; time 0 of 336000 U/mL. The Bioassay (U/mL); 21B, 70 mg/mL; 25° C.; 4 w was 302000 U/mL, the Bioassay (U/mL); 21B, 70 mg/mL; 25° C.; 8 w was 268000 U/mL and the Bioassay (U/mL); 21B, 70 mg/mL; 25° C.; 13 w was 343000 U/mL. The Bioassay (U/mL); 21B, 70 mg/mL; 25° C.; time 0 was 336000 U/mL, the Bioassay (U/mL); 21C, 70 mg/mL; 2-8° C.; 4 w was 334000 U/mL and the Bioassay (U/mL); 21C, 70 mg/mL; 2-8° C.; 8 w was 307000 U/mL. It also gave a Bioassay (U/mL); 21C, 70 mg/mL; 2-8° C.; 13 w of 335000 U/mL, a Bioassay (U/mL); 21C, 70 mg/mL; 2-8° C.; time 0 of 323000 U/mL and a Bioassay (U/mL); 21C, 70 mg/mL; 25° C.; 4 w of 316000 U/mL. The Bioassay (U/mL); 21C, 70 mg/mL; 25° C.; 8 w was 269000 U/mL, the Bioassay (U/mL); 21C, 70 mg/mL; 25° C.; 13 w was 318000 U/mL and the Bioassay (U/mL); 21C, 70 mg/mL; 25° C.; time 0 was 323000 U/mL. For the same substance, the Bioassay (U/mL); 21D, 100 mg/mL; 2-8° C.; 4 w was 452000 U/mL, the Bioassay (U/mL); 21D, 100 mg/mL; 2-8° C.; 8 w was 432000 U/mL and the Bioassay (U/mL); 21D, 100 mg/mL; 2-8° C.; 13 w was 490000 U/mL. It also gave a Bioassay (U/mL); 21D, 100 mg/mL; 2-8° C.; time 0 of 461000 U/mL, a Bioassay (U/mL); 21D, 100 mg/mL; 25° C.; 4 w of 509000 U/mL and a Bioassay (U/mL); 21D, 100 mg/mL; 25° C.; 8 w of 431000 U/mL. For the same substance, the Bioassay (U/mL); 21D, 100 mg/mL; 25° C.; 13 w was 419000 U/mL, the Bioassay (U/mL); 21D, 100 mg/mL; 25° C.; time 0 was 461000 U/mL and the Bioassay (U/mL); 21E, 100 mg/mL; 2-8° C.; 4 w was 439000 U/mL. It also gave a Bioassay (U/mL); 21E, 100 mg/mL; 2-8° C.; 8 w of 436000 U/mL, a Bioassay (U/mL); 21E, 100 mg/mL; 2-8° C.; 13 w of 470000 U/mL and a Bioassay (U/mL); 21E, 100 mg/mL; 2-8° C.; time 0 of 459000 U/mL. It also gave a Bioassay (U/mL); 21E, 100 mg/mL; 25° C.; 4 w of 442000 U/mL, a Bioassay (U/mL); 21E, 100 mg/mL; 25° C.; 8 w of 396000 U/mL and a Bioassay (U/mL); 21E, 100 mg/mL; 25° C.; 13 w of 405000 U/mL. The Bioassay (U/mL); 21E, 100 mg/mL; 25° C.; time 0 was 459000 U/mL, the Bioassay (U/mL); 21F, 100 mg/mL; 2-8° C.; 4 w was 470000 U/mL and the Bioassay (U/mL); 21F, 100 mg/mL; 2-8° C.; 8 w was 407000 U/mL. For the same substance, the Bioassay (U/mL); 21F, 100 mg/mL; 2-8° C.; 13 w was 424000 U/mL, the Bioassay (U/mL); 21F, 100 mg/mL; 2-8° C.; time 0 was 456000 U/mL and the Bioassay (U/mL); 21F, 100 mg/mL; 25° C.; 4 w was 449000 U/mL. The Bioassay (U/mL); 21F, 100 mg/mL; 25° C.; 8 w was 387000 U/mL, the Bioassay (U/mL); 21F, 100 mg/mL; 25° C.; 13 w was 476000 U/mL and the Bioassay (U/mL); 21F, 100 mg/mL; 25° C.; time 0 was 456000 U/mL. For the same substance, the Bioassay (U/mL); 21G, 100 mg/mL; 2-8° C.; 4 w was 543000 U/mL, the Bioassay (U/mL); 21G, 100 mg/mL; 2-8° C.; 8 w was 401000 U/mL and the Bioassay (U/mL); 21G, 100 mg/mL; 2-8° C.; 13 w was 445000 U/mL. For the same substance, the Bioassay (U/mL); 21G, 100 mg/mL; 2-8° C.; time 0 was 494000 U/mL, the Bioassay (U/mL); 21G, 100 mg/mL; 25° C.; 4 w was 497000 U/mL and the Bioassay (U/mL); 21G, 100 mg/mL; 25° C.; 8 w was 433000 U/mL. For the same substance, the Bioassay (U/mL); 21G, 100 mg/mL; 25° C.; 13 w was 441000 U/mL, the Bioassay (U/mL); 21G, 100 mg/mL; 25° C.; time 0 was 494000 U/mL and the Bioassay (U/mL); 21H, 100 mg/mL; 2-8° C.; 4 w was 446000 U/mL. For the same substance, the Bioassay (U/mL); 21H, 100 mg/mL; 2-8° C.; 8 w was 388000 U/mL, the Bioassay (U/mL); 21H, 100 mg/mL; 2-8° C.; 13 w was 445000 U/mL and the Bioassay (U/mL); 21H, 100 mg/mL; 2-8° C.; time 0 was 472000 U/mL. It also gave a Bioassay (U/mL); 21H, 100 mg/mL; 25° C.; 4 w of 465000 U/mL, a Bioassay (U/mL); 21H, 100 mg/mL; 25° C.; 8 w of 366000 U/mL and a Bioassay (U/mL); 21H, 100 mg/mL; 25° C.; 13 w of 434000 U/mL. For the same substance, the Bioassay (U/mL); 21H, 100 mg/mL; 25° C.; time 0 was 472000 U/mL.
